# B1: Recombinant human heparanase (Homo sapiens) (protein)
# chain 1: KKFKNSTYSRSSVDVLYTFANCSGLDLIFGLNALLRTADLQWNSSNAQLLLDYCSSKGYNISWELGNEPNSFLKKADIFINGSQLGEDFIQLHKLLRKSTFKNAKLYGPDVGQPRRKTAKMLKSFLKAGGEVIDSVTWHHYYLNGRTATKEDFLNPDVLDIFISSVQKVFQVVESTRPGKKVWLGETSSAYGGGAPLLSDTFAAGFMWLDKLGLSARMGIEVVMRQVFFGAGNYHLVDENFDPLPDYWLSLLFKKLVGTKVLMASVQGSKRRKLRVYLHCTNTDNPRYKEGDLTLYAINLHNVTKYLRLPYPFSNKQVDKYLLRPLGPHGLLSKSVQLNGLTLKMVDDQTLPPLMEKPLRPGSSLGLPAFSYSFFVIRNAKVAACI
# chain 2: QDVVDLDFFTQEPLHLVSPSFLSVTIDANLATDPRFLILLGSPKLRTLARGLSPAYLRFGGTKTDFLIFDPKKE
# Substrate: CO[C@H]1O[C@H](COS(=O)(=O)O)[C@@H](O[C@@H]2O[C@@H](C(=O)O)[C@@H](O[C@H]3O[C@H](COS(=O)(=O)O)[C@@H](O[C@@H]4O[C@H](C(=O)O)[C@@H](O[C@H]5O[C@H](COS(=O)(=O)O)[C@@H](O)[C@H](O)[C@H]5NS(=O)(=O)O)[C@H](O)[C@H]4O)[C@H](OS(=O)(=O)O)[C@H]3NS(=O)(=O)O)[C@H](O)[C@H]2OS(=O)(=O)O)[C@H](O)[C@H]1NS(=O)(=O)O
# Assay: purified protein, by the assay type
# Details: pH 5.0
protein,measurement,value
B1,Km,3.6 ± 0.5 µM

# Source: paper PMC3821029
